Assay results as given in the supplement of paper PMC9170038.

Test system: MS2 coat protein
Test: apparent KD of MS2 coat protein; designed switch direction (-1 OFF switch, 1 ON switch): -1; higher = weaker reporter binding
Procedure, shortened: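 Each step of the titration lasted 0.8–1.5 h at the lowest concentration and 10–20 min at the highest. The protein, SNAP-549-labelled MS2 coat protein, went from 0.7 or 1.5 nM doubling to 3 µM over RNA switches transcribed on Illumina chips by stalled E. coli RNA polymerase. Normalised cluster fluorescence was curve-fitted, and the per-design median over clusters is given as apparent KD.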

[1] = input ligand: microRNA oligo, concentration not stated
[2] = Eterna round: R95, input ligand: microRNA oligo, concentration not stated

For “GUAUAGCUAAAGGAUAUUCUCCGACGACGUGAAGAAGAAGGUUGGACAUGAGGAUCACCCAUGUGUACAGGAUA [Eternabot (L2) Solution 62] (Eterna round: R97, puzzle: Exclusion 6)”, the “apparent KD of MS2 coat protein” value (input ligand: FMN 200 uM) was 21.9 nM and the “apparent KD of MS2 coat protein” value (input ligand: none) was 21.8 nM.

“GUCAGCUCGUCAGGAUAUGCACAUGAGGAUCACCCAUGUAAGAUCAAGCUGCUUCGGCAGCAAGUGCAGAAGGGACGAGCUGAU [ENG2/9-B3] (Eterna round: R96, puzzle: Exclusion NG 2)” was tested, and the “apparent KD of MS2 coat protein” value (input ligand: FMN 200 uM) was 156 nM, the “apparent KD of MS2 coat protein” value [1] was 214 nM and the “apparent KD of MS2 coat protein” value (input ligand: none) was 294 nM.

“GUCAGCUCGUGAGGAUAUACAUCACUGCUUCGGCAGUGUAUUAAGAUCACAUGAGGAUCACCCAUGUAGAAGGUACGAGCUGAU [ENG2/2-C2] (Eterna round: R96, puzzle: Exclusion NG 2)” was tested, and the “apparent KD of MS2 coat protein” value (input ligand: FMN 200 uM) was 214 nM, the “apparent KD of MS2 coat protein” value [1] was 17.6 nM and the “apparent KD of MS2 coat protein” value (input ligand: none) was 26.9 nM.

With “GUCAGGAAUGUAGGAUAUCUGCACGUUUAGUGCAGAGAAGGACAUGAGGAUCACCCAUGUAUAGUAGCUUCGGCUACACCUGAC [ENG1-A2] (Eterna round: R96, puzzle: Exclusion NG 1)” the “apparent KD of MS2 coat protein” value (input ligand: FMN 200 uM) was 19.3 nM, the “apparent KD of MS2 coat protein” value [1] was 12.5 nM and the “apparent KD of MS2 coat protein” value (input ligand: none) was 15.9 nM.

In the case of “GUCCGGCAUGUAGGAUAUGGAUCCGAUUAGGAUUUAGAAGGACAUGAGGAUCACCCAUGUACAUGUAAUUAGUCAUUACCGGAC [EXclNG1-LROPPY02] (Eterna round: R96, puzzle: Exclusion NG 1)”, the “apparent KD of MS2 coat protein” value (input ligand: FMN 200 uM) was 40.2 nM, the “apparent KD of MS2 coat protein” value [1] was 17.8 nM and the “apparent KD of MS2 coat protein” value (input ligand: none) was 22.2 nM.

For “GUCGUGCAGCUUUGCUGUACGAGUACAUGAGGAUCACCCAUGUAGGAUAUGGUACGCUUUGCGUGCUAGAAGGAUAUGUGUAGA [salish99_ExNG3_r04_502] (Eterna round: R96, puzzle: Exclusion NG 3)”, the “apparent KD of MS2 coat protein” value (input ligand: FMN 200 uM) was 53.5 nM, the “apparent KD of MS2 coat protein” value [1] was 30.2 nM and the “apparent KD of MS2 coat protein” value (input ligand: none) was 36.1 nM.

With “GUCUAACAUGAGGAUCACCCAUGUCAGGAUAUGCGAAUUUCAUCAAAAGAUGAAAUUUGCAGAAGGGACUAGAC [Omei Ex1 A28] (Eterna round: R97, puzzle: Exclusion 1)” the “apparent KD of MS2 coat protein” value (input ligand: FMN 200 uM) was 26.6 nM and the “apparent KD of MS2 coat protein” value (input ligand: none) was 24.1 nM.

In the case of “GUCUCACAUGAGGAUCACCCAUGUGAGGAUAUACUGGGCAUUCUGGUGGCAGGUGGGCGUAGAAGGCACGUGGG [Eternabot (L1) Solution 82] (Eterna round: R97, puzzle: Exclusion 1)”, the “apparent KD of MS2 coat protein” value (input ligand: FMN 200 uM) was 33.8 nM and the “apparent KD of MS2 coat protein” value (input ligand: none) was 19.4 nM.

For “GUCUCCAGAGGAUAUCUUUUACGCGACAUGAGGAUCACCCAUGUAGAGGAGAUUGUCAGGAGAGAAGGCUGGGACG [Eternabot (L1) Solution 56] (Eterna round: R97, puzzle: Exclusion 5)”, the “apparent KD of MS2 coat protein” value (input ligand: FMN 200 uM) was 55.1 nM and the “apparent KD of MS2 coat protein” value (input ligand: none) was 42.7 nM.

In the case of “GUCUCGUCAGGAUAUGACGCUACAUUUUGUUUUUAGAAGAGUCAGAAGGGACAUGAGGAUCACCCAUGUGAUUC [Ex4 - 3 - 1] (puzzle: Exclusion 4)”, the “apparent KD of MS2 coat protein” value [2] was 257 nM.

For “GUCUUAAGUUAAACCGAUUACAUGAGGAUCACCCAUGUGAACAUGACAGUCCGCAUGAGGAGUUUCUUGCUCGUCAU [Eternabot (L1) Solution 28] (Eterna round: R97, puzzle: Sensor, turn-off variant 1)”, the “apparent KD of MS2 coat protein” value (input ligand: FMN 200 uM) was 49.6 nM and the “apparent KD of MS2 coat protein” value (input ligand: none) was 46.8 nM.

For “GUCUUACAUGAGGAUCACCCAUGUGAGGAUAUGAGUGGUGCUGCUAGGUAGUAUAGACUCAGAAGGCGCAUGAU [Malcxlusion 3 - Jieux - Exclusion 1] (Eterna round: R97, puzzle: Exclusion 1)”, the “apparent KD of MS2 coat protein” value (input ligand: FMN 200 uM) was 37.7 nM and the “apparent KD of MS2 coat protein” value (input ligand: none) was 22.6 nM.

For “GUGAAGUAAGGAUAUACAUGAGGAUCACCCAUGUGUGGGAAGGUGAUGGGAGUAGGUAGUAGAAGGUACGAGGA [JR_Exclu3_Sub065] (puzzle: Exclusion 3)”, the “apparent KD of MS2 coat protein” value [2] was 108 nM.

In the case of “GUGAAGUAAGGAUAUAGUGGAAAAGAUAAGGUAUGAGAGUUCUAGAAGGUACAUGAGGAUCACCCAUGUUAGGG [JR_Exclu4_Sub085] (Eterna round: R96, puzzle: Exclusion 4)”, the “apparent KD of MS2 coat protein” value (input ligand: FMN 200 uM) was 324 nM, the “apparent KD of MS2 coat protein” value [1] was 212 nM and the “apparent KD of MS2 coat protein” value (input ligand: none) was 360 nM.

“GUGAAGUAAGGAUAUAGUGGAAAAGAUAAGGUAUGAGAGUUCUAGAAGGUACAUGAGGAUCACCCAUGUUAGGG [JR_Exclu4_Sub085] (puzzle: Exclusion 4)” was tested, and the “apparent KD of MS2 coat protein” value [2] was 267 nM.

With “GUGCAGCGAGGAUAUACAGACGGGUCCAGUACGUGUCUUGGACUUGAGGAUCACCCAAGUAGAAGGCGUCUCAG [salish99_ex2_r4_609] (Eterna round: R97, puzzle: Exclusion 2)” the “apparent KD of MS2 coat protein” value (input ligand: FMN 200 uM) was 35.4 nM and the “apparent KD of MS2 coat protein” value (input ligand: none) was 36.8 nM.

For “GUGGUAGGUUUUUCGAGUAACAUGAGGAUCACCCAUGUAUUAGUUGGAUGUAUCAAGCUUUUUGCUCGACUUAUAAA [JR_SV3TOV1_Sub043] (puzzle: Sensor v3, turn-off variant 1)”, the “apparent KD of MS2 coat protein” value (Eterna round: R95, input ligand: FMN 200 uM) was 249 nM, the “apparent KD of MS2 coat protein” value [2] was 40.6 nM and the “apparent KD of MS2 coat protein” value (Eterna round: R95, input ligand: none) was 288 nM.

With “GUGUACAGAGGAUAUACACGAGGAGUUACGAAAGUAACUUCACAUGAGGAUCACCCAUGUAGAAGGCUGUACAC [Dot plot directed v6] (puzzle: Exclusion 2)” the “apparent KD of MS2 coat protein” value [2] was 25.4 nM.

“GUGUAGAGAGGAUAUACAUGAGGAUCACCCAUGUGAAUAAGAUAGAAUAAGAUAAAGUGUAGAAGGCUUAGUGU [Excluse me!!! 20 - Jieux - Exclusion 3] (puzzle: Exclusion 3)” was tested, and the “apparent KD of MS2 coat protein” value [2] was 31.8 nM.

With “GUGUAGAUAGGAUAUACGAGAGUCUAGCGAAGCUAGAUUCUACAUGAGGAUCACCCAUGUAGAAGGGUCUACAC [Fiskers Ex 2 - 30] (puzzle: Exclusion 2)” the “apparent KD of MS2 coat protein” value [2] was 14.2 nM.

In the case of “GUGUAGUCAGGAUAUACAUAGGAAGAGAAGAGAAGAUAAGCACAUGAGGAUCACCCAUGUAGAAGGGACAGUGU [Excluse me!! 3 - Jieux - Exclusion 2] (puzzle: Exclusion 2)”, the “apparent KD of MS2 coat protein” value [2] was 57.4 nM.

For “GUUAAUUGUGACAUGGGUGACAUGAGGAUCACCCAUGUCACAAGCUUUUUGUUCGUCUUAUAAUUAACCCAUGUCAC [Stov1/13-B2] (Eterna round: R97, puzzle: Sensor, turn-off variant 1)”, the “apparent KD of MS2 coat protein” value (input ligand: FMN 200 uM) was 79.8 nM and the “apparent KD of MS2 coat protein” value (input ligand: none) was 94.8 nM.

For “GUUCGACAUGAGGAUCACCCAUGUGAGGAUAUACGAUUAGCUGCUAGGUAGUUAGUAUGUAGAAGGUGCGUGUU [EX1 #70] (Eterna round: R97, puzzle: Exclusion 1)”, the “apparent KD of MS2 coat protein” value (input ligand: FMN 200 uM) was 53.3 nM and the “apparent KD of MS2 coat protein” value (input ligand: none) was 54.2 nM.

With “UAAAACGGAGGAUAUACUGACCCUCAAAACAGACGCGCUGGACAUGAGGAUCACCCAUGUAGAAGGCCGAAUGC [Titeustele] (puzzle: Exclusion 2)” the “apparent KD of MS2 coat protein” value [2] was 21.7 nM.

In the case of “UAAACAAGCGAAAGAUCCCACAUGAGGAUCACCCAUGUGCUCGUCUUAUAAGGUACUGUGACGAAAGUCACGGUACC [Sensor 3, v1 - 91 v19] (Eterna round: R97, puzzle: Sensor, turn-off variant 1)”, the “apparent KD of MS2 coat protein” value (input ligand: FMN 200 uM) was 37.9 nM and the “apparent KD of MS2 coat protein” value (input ligand: none) was 41 nM.

“UAAAGUAUAUAGGAUAUCUAGCUGGAUACAGCUAGAGAAGGAUGUACAUGAGGAUCACCCAUGUAAAUCAGUGA [Ex6/14-A3] (Eterna round: R97, puzzle: Exclusion 6)” was tested, and the “apparent KD of MS2 coat protein” value (input ligand: FMN 200 uM) was 33.9 nM and the “apparent KD of MS2 coat protein” value (input ligand: none) was 16.5 nM.

In the case of “UAAAUAAAUGUAGGAUAUCUGCACGUGUAGUGCAGAGAAGGACAUGAGGAUCACCCAUGUAUAGUAGCUUCGGCUACAAAUAAU [ENG1-C3] (Eterna round: R96, puzzle: Exclusion NG 1)”, the “apparent KD of MS2 coat protein” value (input ligand: FMN 200 uM) was 110 nM, the “apparent KD of MS2 coat protein” value [1] was 69.3 nM and the “apparent KD of MS2 coat protein” value (input ligand: none) was 88.8 nM.

In the case of “UAAGAAUACCGAGGAUAUGGUAGUACAUAUUUACCAGAAGGCGGACUCAACAUGAGGAUCACCCAUGUAUAAAGGGUAUUAGGU [JR_ExcNG1_Sub043] (Eterna round: R96, puzzle: Exclusion NG 1)”, the “apparent KD of MS2 coat protein” value (input ligand: FMN 200 uM) was 94.1 nM, the “apparent KD of MS2 coat protein” value [1] was 58.3 nM and the “apparent KD of MS2 coat protein” value (input ligand: none) was 64.3 nM.

With “UAAGAAUACUGAGGAUAUGCUAGUUUAUCUCAAGCAGAAGGCGGACUCAACAUGAGGAUCACCCAUGUAAGACGGGUACUAGAU [Ex NG1 #13] (Eterna round: R96, puzzle: Exclusion NG 1)” the “apparent KD of MS2 coat protein” value (input ligand: FMN 200 uM) was 319 nM, the “apparent KD of MS2 coat protein” value [1] was 59 nM and the “apparent KD of MS2 coat protein” value (input ligand: none) was 832 nM.

“UAAGAGUAUGUUAGGAUAUGCUGGUCCUUGGAUCAGCAGAAGGAACAUGAGGAUCACCCAUGUAGAAUCUUUUA [Mod of JL 17 - Jieux - Brourd's mod of Exclusion 4] (Eterna round: R97, puzzle: Brourd's mod of Exclusion 4)” was tested, and the “apparent KD of MS2 coat protein” value (input ligand: FMN 200 uM) was 74.8 nM and the “apparent KD of MS2 coat protein” value (input ligand: none) was 21.3 nM.

“UAAGCAAGUGAGCCGAUUCACAUGAGGAUCACCCAUGUAAGAGAGGAUAUUUGAUUGGAUCGAUUAGAGAAGGUUCUAAUGUGG [Eternabot solution 25] (Eterna round: R96, puzzle: Exclusion NG 3)” was tested, and the “apparent KD of MS2 coat protein” value (input ligand: FMN 200 uM) was 87.2 nM, the “apparent KD of MS2 coat protein” value [1] was 28.9 nM and the “apparent KD of MS2 coat protein” value (input ligand: none) was 37.2 nM.

In the case of “UAAGCUCUGUCAGGAUAUCCCUGUAAACGCAACGGAGAAGGGACAUGAGGAUCACCCAUGUGCGGGCCCAACGCGCUUGGGUCC [Gelaisve] (Eterna round: R96, puzzle: Exclusion NG 1)”, the “apparent KD of MS2 coat protein” value (input ligand: FMN 200 uM) was 56.6 nM, the “apparent KD of MS2 coat protein” value [1] was 20.6 nM and the “apparent KD of MS2 coat protein” value (input ligand: none) was 26.3 nM.

With “UAAUAACAAGCGAGAUCCUACAUGAGGAUCACCCAUGUGCUCGUCUUAUAAGGUACUGUGACGAAAGUCACGGUACC [Eli 87 + Mat D67] (Eterna round: R97, puzzle: Sensor, turn-off variant 1)” the “apparent KD of MS2 coat protein” value (input ligand: FMN 200 uM) was 17.9 nM and the “apparent KD of MS2 coat protein” value (input ligand: none) was 20.1 nM.

“UAAUAGAUGGUUAGGAUAUGCUGGCCUAGGCCGCGGCAGAAGGAACAUGAGGAUCACCCAUGUAGUAGGAUCCA [Eternabot (L2) Solution 15] (Eterna round: R97, puzzle: Brourd's mod of Exclusion 4)” was tested, and the “apparent KD of MS2 coat protein” value (input ligand: FMN 200 uM) was 204 nM and the “apparent KD of MS2 coat protein” value (input ligand: none) was 98.6 nM.
